Laboratory results reported in US11278600B2, “Human alpha-galactosidase variants” (Codexis, Inc., priority 2014, dated 2022).
Substitutions are numbered along the chain they refer to.

B1: 237 (protein)
chain: LDNGLARTPTMGWLHWERFMCNLDCQEEPDSCISEKLFMEMAELMVSEGWKDAGYEYLCIDDCWMAPQRDSEGRLQADPQRFPHGIRQLANYVHSKGLKLGIYADVGNKTCAGFPGSFGYYDIDAQTFADWGVDLLKFDGCYCDSLENLADGYKHMSLALNRTGRSIVYSCEWPLYMWPFQKPNYTEIRQYCNHWRNFADIDDSWASIKSILDWTSRNQERIVDVAGPGGWNDPDMLVIGNFGLSWNQQVTQMALWAIMAAPLFMSNDLRHISPQAKALLQDKDVIAINQDPLGKQGYQLRKGDNFEVWERPLSGDAWAVAMINRQEIGGPRSYTIPVASLGKGVACNPGCFITQLLPVKRKLGFYDWDSRLRSHINPTGTVLLQLENTMQMSLKDLL
modifications: Synthetic Polypeptide sequence of Variant No. 237 of mature Human GLA
B2: 238 (protein)
chain: LDNGLARTPTMGWLHWERFMCNLDCQEEPDSCISEKLFMEMAELMVSEGWKDAGYEYLCIDDCWMAPQRDSEGRLQADPQRFPHGIRQLANYVHSKGLKLGIYADVGNKTCAGFPGSFGYYDIDAQTFADWGVDLLKFDGCYCDSLENLADGYKHMSLALNRTGRSIVYSCEWPLYMWPFQKPNYTEIRQYCNHWRNFADIDDSWASVKSILDWTSFNQERIVDVAGPGGWNDPDMLVIGNFGLSWNQQVTQMALWAIMAAPLFMSNDLRHISPQAKALLQDKDVIAINQDPLGKQGYQLRQGDNFEVWERPLSGLAWAVAVINRQEIGGPRSYTIAVASLGGGVACNPACFITQLLPVKRKLGLYEWTSRLKSHVNPTGTVLLQLENTMQMSLKDLL
modifications: Synthetic Polypeptide sequence of Variant No. 238 of mature Human GLA
B3: 239 (protein)
chain: B2 chain with R221K, N247D, V322I, G343D
modifications: Synthetic Polypeptide sequence of Variant No. 239 of mature Human GLA
B4: 240 (protein)
chain: B2 chain with V208I, L269I, V322M, G343K, P349L, L365F, V376I
modifications: Synthetic Polypeptide sequence of Variant No. 240 of mature Human GLA
B5: 241 (protein)
chain: B2 chain with V208I, N247D, G343D, L365F
modifications: Synthetic Polypeptide sequence of Variant No. 241 of mature Human GLA
B6: 242 (protein)
chain: B2 chain with V208I, N247D, V376I
modifications: Synthetic Polypeptide sequence of Variant No. 242 of mature Human GLA
B7: 243 (protein)
chain: B1 chain with R217F, N247D, D316L, K343G, D367E, D369T
modifications: Synthetic Polypeptide sequence of Variant No. 243 of mature Human GLA
B8: 244 (protein)
chain: B1 chain with R217F, N247D, P337A, D367E, D369T
modifications: Synthetic Polypeptide sequence of Variant No. 244 of mature Human GLA
B9: 245 (protein)
chain: B2 chain with V208I, N247D, Q302K, G343K
modifications: Synthetic Polypeptide sequence of Variant No. 245 of mature Human GLA
B10: 246 (protein)
chain: B1 chain with R217F, G350A, D367E, D369T
modifications: Synthetic Polypeptide sequence of Variant No. 246 of mature Human GLA

test: HTP-analysis of supernatants pretreated with acid (MUGal hydrolysis); type: biochemical; details: challenge at pH 4.2; activity of the variant/activity of Rd2BB (SEQ ID NO: 10); yeast culture supernatant
Procedure, shortened: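 MUGal hydrolysis was tracked by fluorescence (Ex 355 nm, Em 448 nm) after a 30-180 min reaction at 37° C. in pH 4.8 McIlvaine/citrate buffer, stopped with 1 M sodium carbonate. Beforehand, yeast (INVSc1) culture supernatants carrying GLA variants were held 1-3 h at 37° C. in acidic McIlvaine buffer, pH 3.3-4.3.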

| Molecule | Relative Activity of GLA Variants After Challenge at pH 4.2 |
| --- | --- |
| B1 | +++ (+++ = >2.5 relative activity over Rd2BB (SEQ ID NO: 10)) |
| B2 | +++ (+++ = >2.5 relative activity over Rd2BB (SEQ ID NO: 10)) |
| B3 | +++ (+++ = >2.5 relative activity over Rd2BB (SEQ ID NO: 10)) |
| B4 | + (+ = 0.5 to 1.5 relative activity over Rd2BB (SEQ ID NO: 10)) |
| B5 | +++ (+++ = >2.5 relative activity over Rd2BB (SEQ ID NO: 10)) |
| B6 | +++ (+++ = >2.5 relative activity over Rd2BB (SEQ ID NO: 10)) |
| B7 | +++ (+++ = >2.5 relative activity over Rd2BB (SEQ ID NO: 10)) |
| B8 | +++ (+++ = >2.5 relative activity over Rd2BB (SEQ ID NO: 10)) |
| B9 | +++ (+++ = >2.5 relative activity over Rd2BB (SEQ ID NO: 10)) |
| B10 | +++ (+++ = >2.5 relative activity over Rd2BB (SEQ ID NO: 10)) |

test: HTP-analysis of supernatants pretreated with bovine serum (MUGal hydrolysis); type: biochemical; details: activity of the variant/activity of Rd2BB (SEQ ID NO: 10), yeast culture supernatant
Protocol: Yeast (INVSc1) cells transformed with vectors expressing GLA and GLA variants using the lithium acetate method were selected on SD-Ura agar plates. After 72 h incubation at 30° C. colonies were placed into the wells of Axygen® 1.1 ml 96-well deep well plates filled with 200 μl/well SD-Ura broth (2 g/L SD-Ura, 6.8 g/L yeast nitrogen base without amino acids [Sigma Aldrich]), 3.06 g/L sodium dihydrogen phosphate, 0.804 g/L disodium hydrogen phosphate, pH 6.0 supplemented with 6% glucose. The cells were allowed to grow for 20-24 hours in a Kuhner shaker (250 rpm, 30° C., and 85% relative humidity). Overnight culture samples (20 μL) were transferred into Corning Costar® 96-well deep plates filled with 380 µL of SD-ura broth supplemented with 2% glucose. The plates were incubated for 66-84 h in a Kuhner shaker (250 rpm, 30° C., and 85% relative humidity). The cells were then pelleted (4000 rpm×20 min), and the supernatants isolated and stored at 4° C. prior to analysis.
GLA variants were challenged with bovine serum to simulate the conditions the variants encounter following infusion into a patient. First, 20 μL of yeast culture supernatant and 80 μL, of bovine serum were added to the wells of a 96-well round bottom plate. The plates were sealed and incubated at 37° C. for 1 h. For the assay, 50 μL of serum-challenged sample was mixed with 25 μL, of 1 M citrate buffer pH 4.3 and 25 μL, of 4 mM MUGal in McIlvaine buffer pH 4.8. The reactions were mixed briefly and incubated at 37° C. for 180 minutes, prior to quenching with 100 μL, of 1 M sodium carbonate. Hydrolysis was analyzed using a SpectraMax® M2 microplate reader monitoring fluorescence (Ex. 355 nm, Em. 448 nm).

| Molecule | Relative Activity of GLA Variants After Challenge with Serum |
| --- | --- |
| B1 | +++ (+++ = >2.5 relative activity over Rd2BB (SEQ ID NO: 10)) |
| B2 | ++ (++ = 1.5 to 2.5 relative activity over Rd2BB (SEQ ID NO: 10)) |
| B3 | ++ (++ = 1.5 to 2.5 relative activity over Rd2BB (SEQ ID NO: 10)) |
| B4 | + (+ = 0.5 to 1.5 relative activity over Rd2BB (SEQ ID NO: 10)) |
| B5 | ++ (++ = 1.5 to 2.5 relative activity over Rd2BB (SEQ ID NO: 10)) |
| B6 | +++ (+++ = >2.5 relative activity over Rd2BB (SEQ ID NO: 10)) |
| B7 | +++ (+++ = >2.5 relative activity over Rd2BB (SEQ ID NO: 10)) |
| B8 | +++ (+++ = >2.5 relative activity over Rd2BB (SEQ ID NO: 10)) |
| B9 | ++ (++ = 1.5 to 2.5 relative activity over Rd2BB (SEQ ID NO: 10)) |
| B10 | +++ (+++ = >2.5 relative activity over Rd2BB (SEQ ID NO: 10)) |

test: HTP-analysis of supernatants pretreated with base (MUGal hydrolysis); type: biochemical; details: challenge at pH 7.6; activity of the variant/activity of Rd2BB (SEQ ID NO: 10); yeast culture supernatant
Procedure, shortened: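 GLA variants secreted from yeast INVSc1; culture supernatants pre-incubated with McIlvaine buffer pH 7.0–8.2 or 200 mM bicarbonate pH 9.1–9.7 at 37° C. for 1–18 h. Residual activity: MUGal (4 mM stock) hydrolysis at pH 4.3–4.8, 37° C., 30–180 min, carbonate quench; fluorescence Ex 355/Em 448 nm.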

| Molecule | Relative Activity of GLA Variants After Challenge at pH 7.6 |
| --- | --- |
| B1 | +++ (+++ = >2.5 relative activity over Rd2BB (SEQ ID NO: 10)) |
| B2 | +++ (+++ = >2.5 relative activity over Rd2BB (SEQ ID NO: 10)) |
| B3 | +++ (+++ = >2.5 relative activity over Rd2BB (SEQ ID NO: 10)) |
| B4 | + (+ = 0.5 to 1.5 relative activity over Rd2BB (SEQ ID NO: 10)) |
| B5 | +++ (+++ = >2.5 relative activity over Rd2BB (SEQ ID NO: 10)) |
| B6 | +++ (+++ = >2.5 relative activity over Rd2BB (SEQ ID NO: 10)) |
| B7 | +++ (+++ = >2.5 relative activity over Rd2BB (SEQ ID NO: 10)) |
| B8 | +++ (+++ = >2.5 relative activity over Rd2BB (SEQ ID NO: 10)) |
| B9 | +++ (+++ = >2.5 relative activity over Rd2BB (SEQ ID NO: 10)) |
| B10 | +++ (+++ = >2.5 relative activity over Rd2BB (SEQ ID NO: 10)) |

test: HTP-analysis of yeast culture supernatants, no challenge (MUGal hydrolysis); type: biochemical; details: activity of the variant/activity of Rd2BB (SEQ ID NO: 10), yeast culture supernatant
Procedure, shortened: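 GLA variants were expressed in INVSc1 yeast grown in SD-Ura broth with glucose at 30° C., and culture supernatants were collected after 66-84 h. Supernatant was mixed with McIlvaine buffer pH 4.8 and MUGal (2 mM stock) in 50 mM citrate, 200 mM KCl, pH 4.6, incubated at 37° C. for 30-180 minutes, then quenched with sodium carbonate.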

| Molecule | Relative Activity of GLA Variants After No Challenge (NC) |
| --- | --- |
| B1 | +++ (+++ = >2.5 relative activity over Rd2BB (SEQ ID NO: 10)) |
| B2 | ++ (++ = 1.5 to 2.5 relative activity over Rd2BB (SEQ ID NO: 10)) |
| B3 | +++ (+++ = >2.5 relative activity over Rd2BB (SEQ ID NO: 10)) |
| B4 | − (− = <0.5 relative activity over Rd2BB (SEQ ID NO: 10)) |
| B5 | ++ (++ = 1.5 to 2.5 relative activity over Rd2BB (SEQ ID NO: 10)) |
| B6 | +++ (+++ = >2.5 relative activity over Rd2BB (SEQ ID NO: 10)) |
| B7 | +++ (+++ = >2.5 relative activity over Rd2BB (SEQ ID NO: 10)) |
| B8 | +++ (+++ = >2.5 relative activity over Rd2BB (SEQ ID NO: 10)) |
| B9 | ++ (++ = 1.5 to 2.5 relative activity over Rd2BB (SEQ ID NO: 10)) |
| B10 | +++ (+++ = >2.5 relative activity over Rd2BB (SEQ ID NO: 10)) |
